{"source": "paper PMC4509860", "about": "(Nature chemical biology, 2015)", "binders": {"B1": {"name": "TbtF wild-type (natural protein)", "chain": "MIPARPVLTPGVRYAPTSDGVAFLTRDGIVSITGVSIHRWIDRIAPHLTGERSVAELTDGLAPERRAFVLRLLQALADRGLIIDAAGGREPRLERGTACALHVTETCGPYRESLPKLARSLADALTRAGLDVRLASASEPCDPERCHALVHLTAADEVGLAAAERLDRLSERWGVPIAHVVVWGGEIWRTEAGTVGEDGLPLAAGWRRLTALRPDTEERVPISPTAAVVVAGQVAADVRDRLTTATRAGRRPRLHVVEPARLTCRAHHFIPHFHTMPLTGDAPLAEELTEEEFSRRAAALMDDRTGVFTEIAEGDFGQLPLHVAVTTVADPVGLLGPAGDRPRVIGVGPDFATARYRTARAAIALYGLLAVDPRRLVDADGEPLAGPRTSAAELEDLLGRIRAGGLPAFVRAEDVRGGPPRLLPASSVFPFATARALLAGTVPTGTAVGYSEEGALRAALLDHCRERTLADLASRRVARLTPDTAPSDPVTARYLAFLRAIGLPFDVLDATGPLGVPVYVGVLDGRVVAAEAGASPGEAFRSVLEGILRGLQGIPAARSLPDTLPPVLPEAMAVPDGSPLSAEALAAALARAGLSVSVVRLDHDRRVHALIPHCVRVMVTGEESAHV"}, "B2": {"name": "TbtF R79A (natural protein)", "chain": "B1 chain with R79A"}, "B3": {"name": "StmE L73A (natural protein)", "chain": "MRPNVQIVSRDGDNFVLNLRNGEYWHLNSSAYTMLTRIADGETVDEVARDISAATSAPEQTVRDDLTEAVDQLRKAKLVEVRHS"}, "B4": {"name": "FITC-labeled TbtA leader peptide (peptide)", "chain": "SRRGSMLNLSDLPMDVFEMADSGMEVESLTAGHGMPEVGA", "modifications": "not fully specified (N-terminus); also: FITC label"}, "B5": {"name": "TbtG wild-type (enzyme)", "chain": "MSDALAAAIIGAGLLADELAAAFRPYGEVIRLDEVERAETEAHRLRALVMACDGWDTSIYRETRERCRRLGIPWLPVRTEHGIAVIGPLERPGEPGCAHCFELRRERARPDAAAYRAILNHHGPELAKRPSPYLDELAAATIAALGVRMIDQGSGCHVWYVRLNGLTVERHAFLPEPLCPECGSLPMDDRDSAVIVLRSQPKRAPDDYRTRDIVDELDALVADYVDGESGLIRPLVRDTQGGLVIAGAMLPLRFAGGSEPGVGRTRGYRTSEVTAILEALERWGGVEPGGKRTVIRAAFRDIAADALDPRTLGVHSPEAYAAEDFPFRPFTEDEETEWVWGYSFARRSPILVPETVAYYYVHRDRPRQERPFLYEISNGCALGSGMEEAILYGILEVVERDAFLMTWYGRLGVPRIDLDSAKNRMVPLQAAAISAETGYRIEVYDTTMEHGIPSVWALAIRGGEEPTAAPRPRMVCAAAAHLDPEQAVLSALSELGPLLADLLRRYPDEAERARRMVDDPGLVTTMHDHSTLYGADEAFGRLEFLTGTASTRDLAAMRESTVAFRSADLRDDLLEVIGRILAEGMDVIVVDQTTPEHRVHGFTCVKVLIPGMIPMTFGHRNRRLDGLTRPLVIPYRLGYRPAPLTPEALNPHPHPFP"}}, "assay_in_all_cases": "fluorescence polarisation", "key": {"[1]": {"molecular_target": "B4"}, "[2]": {"molecular_target": "FITC-labeled StmA leader peptide (Streptomonospora alba, N-terminal FITC-Ahx (fluorescein isothiocyanate with an amino hexyl linker))"}, "HcaF wild-type": {"molecular_target": "HcaF wild-type (Bacillus sp. Al Hakam)"}, "HcaF D21A": {"molecular_target": "HcaF D21A (Bacillus sp. Al Hakam)"}, "HcaF F35A": {"molecular_target": "HcaF F35A (Bacillus sp. Al Hakam)"}, "CurC wild-type": {"molecular_target": "CurC wild-type (Corynebacterium urealyticum DSM 7109)"}, "TbtF/G": {"molecular_target": "TbtF/G (Thermobispora bispora)"}, "TbtF D19A": {"molecular_target": "TbtF D19A (Thermobispora bispora)"}, "TbtF L24A": {"molecular_target": "TbtF L24A (Thermobispora bispora)"}, "TbtF V30A": {"molecular_target": "TbtF V30A (Thermobispora bispora)"}, "TbtF F68A": {"molecular_target": "TbtF F68A (Thermobispora bispora)"}, "TbtF R71A": {"molecular_target": "TbtF R71A (Thermobispora bispora)"}, "TbtF Q74A": {"molecular_target": "TbtF Q74A (Thermobispora bispora)"}}, "note": "Substitutions are numbered along the chain they refer to. Names may count otherwise. No end group written: not given here. *: point of attachment. FITC = O=C1OC2(c3ccc(O)cc3Oc3cc(O)ccc32)c2ccc(NC(=S)*)cc21; Ahx = NCCCCCC(=O)O"}
{"binder": "B1", "values": [{"measurement": "Kd", "setting": "[1]", "result": 66, "unit": "nM"}]}
{"binder": "B2", "values": [{"measurement": "Kd", "setting": "[1]", "result": 79, "unit": "nM"}]}
{"binder": "B3", "values": [{"measurement": "Kd", "setting": "[2]", "result": "> 10", "unit": "µM"}]}
{"binder": "SGSMNQFQQELQSLNLNDYQTGNVVYWDPQQSQYPYYYIQDDAR (not fully specified (N-terminus); also: FITC label)", "note": "[FITC-labeled HcaA leader peptide]", "values": [{"measurement": "Kd", "setting": "HcaF wild-type", "result": 89, "unit": "nM"}, {"measurement": "Kd", "setting": "HcaF D21A", "result": 130, "unit": "nM"}, {"measurement": "Kd", "setting": "HcaF F35A", "result": 1700, "unit": "nM"}]}
{"binder": "{FITC-Ahx}-GMSTLISKLPPAVSTDSSKIVSEVQAFEPT", "note": "[FITC-labeled CurA leader]", "values": [{"measurement": "Kd", "setting": "CurC wild-type", "result": 7, "unit": "µM"}]}
{"binder": "B4", "values": [{"measurement": "Kd", "setting": "TbtF/G", "result": 66, "unit": "nM"}, {"measurement": "Kd", "setting": "TbtF D19A", "result": 57, "unit": "nM"}, {"measurement": "Kd", "setting": "TbtF L24A", "result": 65, "unit": "nM"}, {"measurement": "Kd", "setting": "TbtF V30A", "result": 210, "unit": "nM"}, {"measurement": "Kd", "setting": "TbtF F68A", "result": 7.7, "unit": "µM"}, {"measurement": "Kd", "setting": "TbtF R71A", "result": 190, "unit": "nM"}, {"measurement": "Kd", "setting": "TbtF Q74A", "result": 49, "unit": "nM"}]}
{"binder": "B5", "values": [{"measurement": "Kd", "setting": "[1]", "result": "> 10000", "unit": "nM"}]}
